The supplement of paper PMC10567573

B1: HSP90AB1 (parent)
chain: TLRQKAEADKNDKAVKDLVVLLFE
B2: CIB1 (parent)
chain: DLSRLVNCLTGEGEDTRLSASEMK

Variants of: B1
Experiment: protein stability index of a GFP-peptide fusion (GPS, HEK-293T) (PSI 1-6); higher = more stable
Conditions: c terminus: a fixed tail appended
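Note: lentivirally expressed fusions sorted by FACS into six bins by GFP to DsRed ratio, PSI derived from sequencing read proportions per bin multiplied by bin number.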

Row | Variant | protein stability index
1 | R3S | 3.58
2 | R3Y | 2.35
3 | R3H | 2.84
4 | R3W | 2.6
5 | R3F | 2.8
6 | R3N | 3.1
7 | R3K | 3.36
8 | R3E | 3.17
9 | R3T | 3.59
10 | R3Q | 3.11
11 | R3I | 3.18
12 | R3D | 3.57
13 | R3G | 2.72
14 | R3A | 3.46
15 | R3C | 2.75
16 | R3L | 3.11
17 | K10H | 2.69
18 | K10P | 3.68
19 | K10G | 2.63
20 | K10V | 2.57
21 | K10T | 2.92
22 | K10I | 3.06
23 | K10M | 2.65

Row | Variant | protein stability index
24 | K10R | 3.29
25 | K10Q | 2.98
26 | K10L | 2.61
27 | K10E | 2.73
28 | K10F | 2.53
29 | K10A | 3.44
30 | K10D | 3.11
31 | K10N | 2.98
32 | K10S | 3.56
33 | K10W | 2.52
34 | K5C | 2.85
35 | K5D | 3.88
36 | K5M | 3.48
37 | K5V | 3.24
38 | K5Y | 3.26
39 | K5G | 3.87
40 | K5H | 3.01
41 | K5F | 2.75
42 | K5L | 3.1
43 | K5A | 3.12
44 | K5Q | 4.01
45 | K5E | 3.38
46 | K5T | 3.15

Row | Variant | protein stability index
47 | K5I | 3.03
48 | K5R | 3
49 | K5S | 3.36
50 | A8L | 2.38
51 | A8Q | 3.24
52 | A8R | 2.87
53 | A8F | 2.89
54 | A8P | 2.21
55 | A8H | 2.85
56 | A8D | 3.57
57 | A8C | 2.87
58 | A8E | 3.16
59 | A8G | 3.9
60 | A8V | 3.27
61 | A8N | 3.35
62 | A8W | 3.03
63 | E7I | 2.63
64 | E7Y | 1.79
65 | E7M | 2.48
66 | E7D | 2.79
67 | E7N | 2.72
68 | E7W | 1.81
69 | E7P | 2.58

Row | Variant | protein stability index
70 | E7A | 2.67
71 | E7K | 2
72 | E7S | 2.67
73 | E7V | 2.63
74 | E7G | 2.24
75 | E7Q | 1.9
76 | E7R | 2.29
77 | E7L | 2.54
78 | E7C | 2.28
79 | T1E | 3.92
80 | T1P | 3.57
81 | T1C | 2.26
82 | T1V | 2.52
83 | T1N | 2.57
84 | T1W | 2.51
85 | T1H | 3.09
86 | T1M | 3.02
87 | T1S | 4.38
88 | T1Y | 2.63
89 | T1Q | 3.54
90 | T1R | 2.47
91 | T1F | 2.42
92 | T1L | 2.3

Row | Variant | protein stability index
93 | T1G | 3.53
94 | T1D | 3.58
95 | T1A | 3.35
96 | T1K | 2.49
97 | Q4A | 2.63
98 | Q4N | 2.71
99 | Q4P | 3.06
100 | Q4W | 2.71
101 | Q4C | 2.51
102 | Q4E | 3.39
103 | Q4K | 3.26
104 | Q4M | 2.48
105 | Q4R | 2.26
106 | Q4G | 3.06
107 | Q4I | 2.41
108 | Q4D | 3.32
109 | Q4H | 2.37
110 | Q4F | 2.58
111 | Q4S | 3.21
112 | Q4Y | 2.37
113 | L2R | 2.56
114 | L2D | 3.13
115 | L2C | 3.12

Row | Variant | protein stability index
116 | L2N | 2.79
117 | L2K | 2.26
118 | L2G | 3.13
119 | L2V | 3.15
120 | L2I | 3.16
121 | L2P | 3.23
122 | L2E | 3.01
123 | L2W | 2.43
124 | L2S | 3.05
125 | L2F | 2.65
126 | L2Q | 3.62
127 | L2Y | 2.64
128 | L2M | 2.95
129 | D12E | 2.95
130 | D12C | 2.59
131 | D12N | 2.62
132 | D12I | 2
133 | D12A | 2.44
134 | D12H | 2.56
135 | D12G | 2.48
136 | D12L | 2.73
137 | D12K | 1.99
138 | D12F | 2.24

Row | Variant | protein stability index
139 | D9Q | 3.23
140 | D9S | 2.92
141 | D9I | 2.26
142 | D9P | 2.48
143 | D9Y | 2.87
144 | D9N | 2.51
145 | D9K | 2.51
146 | D9E | 2.74
147 | D9C | 2.73
148 | D9H | 2.95
149 | D9V | 2.38
150 | D9T | 2.35
151 | D9G | 3.17
152 | D9F | 2.52
153 | D9A | 2.98
154 | N11P | 2.58
155 | N11M | 3.11
156 | N11K | 2.43
157 | N11E | 3.21
158 | N11R | 3.15
159 | N11V | 2.89
160 | N11D | 2.84
161 | N11Q | 2.62

Row | Variant | protein stability index
162 | N11G | 3.13
163 | N11F | 3.09
164 | N11A | 3
165 | N11C | 2.88
166 | N11S | 2.95
167 | N11T | 3.37
168 | N11I | 2.98
169 | N11L | 2.83
170 | A6C | 2.91
171 | A6W | 3.32
172 | A6P | 3.29
173 | A6G | 2.72
174 | A6E | 3.33
175 | A6N | 2.61
176 | A6R | 2.69
177 | A6F | 2.74
178 | A6D | 3.41
179 | A6I | 3.35
180 | A6K | 2.71
181 | A6T | 2.85
182 | A6M | 2.93
183 | A6Q | 2.68

Variants of: B2
Experiment: as above
Conditions: c terminus: a fixed tail appended

Row | Variant | protein stability index
184 | K24F | 2.57
185 | K24M | 2.45
186 | K24I | 1.81
187 | K24Y | 2.23
188 | K24N | 2.99
189 | K24Q | 3.31
190 | K24H | 2.37
191 | K24W | 1.86
192 | K24C | 3.03
193 | K24A | 3.25
194 | K24E | 3.9
195 | K24S | 2.89
196 | K24V | 2.04
197 | K24P | 2.67
198 | S21K | 4.3
199 | S21T | 3.1
200 | S21R | 1.9
201 | S21A | 2.1
202 | S21Y | 3.14
203 | S21G | 1.68
204 | S21E | 4.15
205 | S21P | 3.5
206 | S21V | 2.17
207 | S21H | 3.01
208 | S21F | 2.36
209 | S21L | 2.06

Row | Variant | protein stability index
210 | S21C | 2.63
211 | S21M | 2.98
212 | S21D | 3.57
213 | E22I | 2.83
214 | E22P | 4.12
215 | E22C | 2.76
216 | E22R | 2.88
217 | E22L | 2.29
218 | E22G | 2.81
219 | E22N | 3.54
220 | E22T | 3.61
221 | E22S | 3.35
222 | E22M | 2.46
223 | E22A | 3.08
224 | E22K | 4.44
225 | E22F | 2.21
226 | E22Y | 3.08
227 | E22H | 2.49
228 | A20E | 4.11
229 | A20P | 3.15
230 | A20H | 2.98
231 | A20D | 2.92
232 | A20F | 1.8
233 | A20M | 2.19
234 | A20T | 1.89
235 | A20W | 3.38

Row | Variant | protein stability index
236 | A20G | 3.69
237 | A20Q | 3.71
238 | A20V | 2.17
239 | A20C | 2.31
240 | A20N | 2.75
241 | A20K | 1.61
242 | A20S | 2.9
243 | A20Y | 2.15
244 | S19M | 2.57
245 | S19W | 2.26
246 | S19Q | 2.78
247 | S19T | 2.01
248 | S19D | 3.17
249 | S19C | 1.89
250 | S19N | 4.35
251 | S19I | 2.62
252 | S19P | 3.61
253 | S19R | 2.6
254 | S19H | 3.01
255 | S19G | 3.56
256 | S19E | 3.61
257 | S19F | 4.13
258 | S19A | 3.2
259 | S19Y | 2.29
260 | M23R | 2.68
261 | M23A | 3.76

Row | Variant | protein stability index
262 | M23W | 2.81
263 | M23Q | 2.6
264 | M23L | 3.23
265 | M23C | 2.85
266 | M23K | 4.14
267 | M23V | 3.17
268 | M23H | 2.71
269 | M23T | 3.14
270 | M23F | 3.12
271 | M23I | 3.03
272 | M23D | 2.32
273 | M23Y | 2.7
274 | M23N | 3.46
275 | D15G | 3.83
276 | D15T | 2.12
277 | D15N | 1.77
278 | D15Y | 2.06
279 | D15V | 1.54
280 | D15E | 3.52
281 | D15R | 2.67
282 | D15M | 1.61
283 | D15A | 3.61
284 | D15F | 2.32
285 | D15P | 2.62
286 | D15K | 3.1
287 | D15C | 2.19

Row | Variant | protein stability index
288 | D15H | 3.49
289 | L18Q | 2.96
290 | L18P | 3.79
291 | L18D | 4.07
292 | L18A | 3.34
293 | L18H | 4.09
294 | L18W | 2.78
295 | L18S | 3.06
296 | L18E | 2.48
297 | L18R | 4.11
298 | L18Y | 3.12
299 | L18F | 1.85
300 | L18V | 3.63
301 | L18G | 1.4
302 | L18K | 3.36
303 | L18N | 3.75
304 | L18M | 2.49
305 | T16M | 2.62
306 | T16V | 2.8
307 | T16P | 4.07
308 | T16Y | 2.49
309 | T16A | 2.46
310 | T16S | 2.48
311 | T16L | 3.71
312 | T16E | 3.18
313 | T16N | 3.22

Row | Variant | protein stability index
314 | T16K | 3.87
315 | T16D | 3.58
316 | T16H | 3.5
317 | T16G | 3.35
318 | T16Q | 2.9
319 | T16F | 2.07
320 | R17Q | 3.1
321 | R17M | 3.08
322 | R17A | 3.68
323 | R17N | 2.76
324 | R17P | 3.35
325 | R17D | 4.12
326 | R17F | 2.99
327 | R17W | 2.33
328 | R17V | 2.65
329 | R17Y | 2.81
330 | R17L | 2.59
331 | R17I | 2.97
332 | R17E | 4.53
333 | R17S | 2.84
334 | R17K | 2.82
